Assay results from the supplement of paper PMC12042874.
± gives the uncertainty stated by the source.

Assay: amyloid nucleation score (Sup35N fusion, yeast selection) (log enrichment); library NNK2; higher = more nucleation; inactive = no reads after selection
Outline: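 After 24 hours of induction with 100 μM copper sulfate, psi-negative yeast expressing peptides of 20 random codons fused to Sup35N were grown for 7 days at 30°C on medium lacking adenine and uracil. Input and output plasmid inserts were sequenced with Illumina, and sequences with under 100 input reads were discarded. Scores for nucleation are the DiMSum log enrichment of output over input reads, centred on the mode score of non-aggregating sequences.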

In order of falling amyloid nucleation score:
1. SYVVCSVIGYYDYLRSRPSC  9.631 ± 0.036
2. TAFNIVSCSGLCSYYQFRF  8.109 ± 0.03
3. STLGPLGPSGYSRRARRLLA  7.415 ± 0.06
4. VKIWLCATCFMGEDVQETAQ  7.055 ± 0.044
5. YHYNNNRWVTGHFQWIWSLY  6.453 ± 0.029
6. APTCSKCCIFMQC  5.99 ± 0.072
7. AQWSRIDCNTLCKAVPISLA  5.773 ± 0.056
8. SLDGISHHSTDVNLVLNCYR  5.222 ± 0.045
9. HMDHARLEVLTVILLGVWGF  5.11 ± 0.089
10. IFIMQTHFTGRVCPSSVKLP  4.99 ± 0.066
11. GCNLFYCLTRSSIETNTSIS  4.3 ± 0.095
12. YRDRINSNYFALDFNILLHY  3.57 ± 0.046
13. MDLLPNSGYGLRSDLRVLAE  3.5 ± 0.097
14. ISKLTTRLLIYERNFPNWGH  3.19 ± 0.17
15. CWLFNTY  3.04 ± 0.14
16. QSAVICVGRCGNCHPPTEL  2.87 ± 0.1
17. VVKDLRT  1.91 ± 0.48
18. IRPSLGRR  1.79 ± 0.26
19. RHSLYVFY  1.69 ± 0.33
20. VVYSSSFVAGLYDSMCWMWG  1.49 ± 0.24
21. CFLCMQSLS  1.34 ± 0.33
22. PQGDSMTVCFQLVT  1.28 ± 0.61
23. TRFRRDESRTSEDLRPRNRR  1.26 ± 0.23
24. KVLRLIRY  1.25 ± 0.48
25. VFVMKMPWQSLISNLIFTSM  1.23 ± 0.2
26. SMTCRDLFSWYGSWYQSILF  0.874 ± 0.47
27. SYTVAYISYFMLLLDGWGNR  0.815 ± 0.12
28. REEYCSFTICWSLDALHDRG  0.527 ± 0.65
29. SSGLH  0.527 ± 0.8
30. RFHRYTILLLLTPEWTEHAI  0.52 ± 0.57
31. AESWVNYRGRDV  0.472 ± 0.8
32. SYHWTGVFGLVHDFGLCCGS  0.425 ± 0.38
33. IGKSEYVEFRLTSSP  0.354 ± 0.53
34. IFEHS  0.346 ± 0.61
35. ALTPGYPSGARVP  0.307 ± 0.49
36. MFSMGEAAAL  0.305 ± 0.3
37. YVRKVKA  0.276 ± 1
38. NPYAHTGHCVIRGFFVA  0.275 ± 0.53
39. VTTMRNSFKFYAIVMGLCSF  0.272 ± 0.65
40. GEPLNGSAGLVGH  0.234 ± 0.34
41. LRARTVVGEYCYSLYMQFVM  0.213 ± 0.43
42. KLVCRMTGCFWVVFIACPYY  0.175 ± 0.35
43. YYQVVTNNLSI  0.129 ± 0.76
44. YSVDACMMNGSVDKTVSFR  0.122 ± 1.1
45. YEVTRRVSWAFDRMYCRVNR  0.101 ± 0.55
46. SCVLRP  0.064 ± 0.33
47. MDWIPLMPTYGIWLPC  0.045 ± 0.41
48. FTLLSMNRSGFIIRVPDAV  0.035 ± 0.24
49. YLIPFMYAKCLSWVILRK  0.029 ± 0.23
50. IDHNTSRC  0.023 ± 0.76
51. FYEYTDTASAGPDETLYLRN  0.022 ± 0.63
52. PRLKMLRWAGVNQS  -0.011 ± 0.4
53. LADTLVSESKYKWLF  -0.032 ± 1.1
54. VHNQGFLFL  -0.07 ± 0.76
55. FSMQSMSKGYVLRPLGMA  -0.098 ± 0.3
56. SFPYNHFYMDYMPVRAPLVV  -0.153 ± 1.1
57. VGNIGSSTC  -0.159 ± 0.45
58. SDGEKFG  -0.256 ± 1.1
59. CCLTPYAIICLLARLNHTKV  -0.273 ± 0.61
60. RIPHHWMSVGLVIAPRLKSV  -0.365 ± 0.63
61. CPRPTCAPHCWYFVLAMVAR  -0.4 ± 0.64
62. CMSSDIYFLVFTESEIVSLC  -0.42 ± 0.76
63. GILGQGDYYLRN  -0.422 ± 1
64. RSTPLKYNLRFIPLSHGRRV  -0.431 ± 0.48
65. AMQLCSFTPFSTYNFLSYDS  -0.685 ± 0.37
66. LQYINRGISRHVVKYSRSLS  -0.733 ± 0.41
67. VIRSSFFFSLELSSREEFGY  -0.817 ± 0.74
68. VVLSCFLQRAPQVYSLF  -0.821 ± 1.1
69. KFSLDF  -0.837 ± 0.53
70. FYYCRALWVYLVTCWHCLSY  -0.864 ± 1.1
71. QIHGVTFFSQRTGTCASEP  -0.875 ± 0.44
72. PSITPLACHHTRCNW  -0.881 ± 0.28
73. DGTNFDR  -0.92 ± 0.37
74. LNQSKFGKVGTSSVFWLFYN  -1.01 ± 0.31
75. DFIITVL  -1.05 ± 0.78
76. NRTFSHWTCLYLFLSTLKRE  -1.06 ± 0.76
77. LFAYNDAFSEYFTITYVYQ  -1.14 ± 1.1
78. ASSMILL  -1.18 ± 0.64
79. MRFRLCNYLLRRVWDLNRGA  -1.18 ± 0.39
80. KFNILPKLWMDICMIYLAVY  -1.33 ± 0.49
81. FLSSGFCRTDFVRSIILYGP  -1.43 ± 0.55

In the case of FLLECSWFCVYTIGFYYRNI, the amyloid nucleation score is reported as “inactive”.
In the case of SCLEMYSHRVPWSFACDDYN, the amyloid nucleation score is reported as “inactive”.
With KTISNYVAGN the amyloid nucleation score was “inactive”.
With MICHMFMG the amyloid nucleation score was “inactive”.
In the case of NVFLS, the amyloid nucleation score is reported as “inactive”.
In the case of RWEDRPSVTRRSGVRNGFSG, the amyloid nucleation score is reported as “inactive”.
With YTANLWYQAWMYSYCENPPT the amyloid nucleation score was “inactive”.
